We go through ten molecules from patent publication US20240109974A1 (SHANDONG SIMCERE BIOPHARMACEUTICAL, published 2024).

Positions count from the first letter of the chain named.

T1: human TNFR2 (Novoprotein, Cat #C830) (human, UniProt P20333 23-257, limits assumed)
T1 construct: construct not described; also called human TNFR2 protein
T1 sequence (looked up): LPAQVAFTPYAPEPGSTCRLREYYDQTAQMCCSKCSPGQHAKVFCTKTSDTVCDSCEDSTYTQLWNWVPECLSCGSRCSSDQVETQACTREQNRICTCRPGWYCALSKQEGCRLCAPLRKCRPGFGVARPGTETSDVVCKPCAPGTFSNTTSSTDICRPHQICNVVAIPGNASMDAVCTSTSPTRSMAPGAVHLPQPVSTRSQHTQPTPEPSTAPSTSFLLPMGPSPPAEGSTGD

T2: human TNFR2 on the surface of CHO-TNFR2 cells (human, UniProt P20333 23-461)
T2 construct: whole, on cells
T2 sequence (looked up): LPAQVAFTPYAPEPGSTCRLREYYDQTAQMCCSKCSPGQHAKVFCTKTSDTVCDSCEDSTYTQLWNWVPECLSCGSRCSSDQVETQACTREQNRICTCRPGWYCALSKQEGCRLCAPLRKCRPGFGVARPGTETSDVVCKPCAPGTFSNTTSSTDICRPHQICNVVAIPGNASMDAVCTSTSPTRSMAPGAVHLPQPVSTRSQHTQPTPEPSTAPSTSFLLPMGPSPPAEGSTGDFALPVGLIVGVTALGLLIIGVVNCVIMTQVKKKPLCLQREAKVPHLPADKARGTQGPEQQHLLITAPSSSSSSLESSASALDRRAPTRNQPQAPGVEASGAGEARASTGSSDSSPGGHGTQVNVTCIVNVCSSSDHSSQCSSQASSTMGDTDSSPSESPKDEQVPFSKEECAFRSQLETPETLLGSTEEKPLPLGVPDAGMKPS

B1: 001-Hu5 (antibody, V domains shown)
VH: EVQLVESGGGLVQPGGSLRLSCAASGFAFSTYDLSWVRQAPGKGLEWVAYINNGGISTYYSDTVKGRFTISRDNAKNTLYLQMNSLRAEDTAVYYCVRGPFYGSANYFDYWGQGTLVTVSS
VL: DIQMTQSPSSLSASVGDRVTITCRTSESIYSNLPWYQQKPGKSPKLLVYDATKLAEGVPSRFSGSGSGTDYTLTISSLQPEDFATYYCQHFWVTPWTFGQGTKVEIK
notes: Humanized form of #001; also called VH1 + VL4
B2: 001-Hu4 (antibody, V domains shown)
VH: B1 VH with T78S
VL: B1 VL
notes: Humanized form of #001; also called VH2 + VL4
B3: 001-Hu1 (antibody, V domains shown)
VH: B1 VH
VL: B1 VL with S43A, V48L
notes: Humanized form of #001; also called VH1 + VL1
B4: 001-Hu3 (antibody, V domains shown)
VH: B1 VH
VL: B1 VL with S43A, V48I
notes: Humanized form of #001; also called VH1 + VL3
B5: 001-Hu2 (antibody, V domains shown)
VH: B1 VH with T78S
VL: B1 VL with V48I, Y71F
notes: Humanized form of #001; also called VH2 + VL2
B6: 219-Hu3 (antibody, V domains shown)
VH: QVQLVQSGAEVKKPGSSVKVSCKASGYSFTNYWMNWVRQAPGQGLEWMGMIHPSDTETRLNQNFKDRVTITADKSTSTAYMELSSLRSEDTAVYYCARGEGLGAARSVSMDYWGQGTLVTVSS
VL: DIQMTQSPSSLSASVGDRVTITCRASQDISNYLNWYQQKPDGTVKLLIYYTAILHSGVPSRFSGSGSGTDYSLTISSLQPEDFATYFCQQGNTLPWTFGQGTKVEIK
notes: also called VH5 + VL5
B7: 219-Hu5 (antibody, V domains shown)
VH: B6 VH with A72V
VL: B6 VL
notes: also called VH7 + VL5
B8: 219-Hu4 (antibody, V domains shown)
VH: B6 VH with R38K, M48I, R67K, V68A, I70L, A72V
VL: B6 VL
notes: also called VH6 + VL5
B9: 219-Hu2 (antibody, V domains shown)
VH: B6 VH with R67K, V68A
VL: B6 VL
notes: also called VH4 + VL5
B10: 219-Hu1 (antibody, V domains shown)
VH: B6 VH with S16A, G44R, A72R, K74T, T76A
VL: B6 VL
notes: also called VH3 + VL5

One experiment concerns the target T1, human TNFR2 (Novoprotein, Cat #C830). Put plainly: competition ELISA, competitor human TNFα-Biotin; AUC against 001-WT. As to the method:
1 μg/ml human TNFR2 (Novoprotein, Cat #C830) was pre-coated with 100 μl/well […] in an ELISA plate. All the test TNFR2 antibodies were subjected to 2.5-fold gradient dilution from the highest concentration of 30 μg/ml; the diluted antibodies were mixed with 15 ng/ml human TNFα-Biotin (Acro Biosystem, Cat #TNA-H82E3) in equal volume, respectively; the resulting mixture was added to the ELISA plate at 100 μl/well, and incubated with shaking at room temperature for 2.0 hours. The plate was washed, and then a Streptavidin-HRP working solution (diluted at 1:10000) was added at 100 μl/well, and the mixture was incubated with shaking at room temperature for 40 minutes. The plate was washed again, and then the substrate TMB of HRP was added to develop colour. A stop solution was added to stop the reaction, and then a microplate reader (MD 13) was used to read the absorbance value. The inhibitory curve of an antibody was drawn with antibody concentration as the abscissa and corresponding OD value as the ordinate, and fitted with four parameters (GraphPad Prism9) to calculate the IC50 value. The smaller the IC50 value, the stronger the ability of an antibody to inhibit the binding of human TNFα to human TNFR2. The blocking effect of a humanized antibody was normalized to its corresponding human-murine chimeric antibody WT. The higher the percentage value, the better the inhibitory effect of the humanized antibody.
A general note: ELISA stands for enzyme-linked immunosorbent assay.
Regarding B1, the “% Relative activity (WT antibody/test antibody)” value was 98%.
Regarding B2, the “% Relative activity (WT antibody/test antibody)” value was determined as 101%.
For B3, the “% Relative activity (WT antibody/test antibody)” value was 98%.
For the molecule B4, the “% Relative activity (WT antibody/test antibody)” value is 99.4%.
On the same count and under the same terms, for B5 the value was 97.1%.

Another experiment deals with T2, human TNFR2 on the surface of CHO-TNFR2 …. Put plainly: competition flow cytometry on CHO-TNFR2 cells, competitor TNFα-biotin; AUC against 219-WT. As to the method: CHO stable cells highly expressing human TNFR2 were used for the experiment (the same as CHO-TNFR2 in Example 4). The CHO-TNFR2 cells were digested, washed twice with DPBS, then stained with Live/Dead (L/D) (20 minutes at room temperature), and plated at a density of 1×10⁵ cells/50 μl/well. A test anti-TNFR2 antibody was diluted to 6 μg/ml with a staining buffer as the starting concentration: the antibody was subjected to 3.33-fold gradient dilution, with a total of 7 concentration points. The diluted antibody was added to the plated cells at 50 μl/well, and the mixture was mixed well by gentle pipetting, and incubated at 4° C. for 30 minutes. Then the diluted 100 ng/ml of human TNFα-biotin was added at 100 μl/well, and the mixture was mixed well by gentle pipetting, and then incubated at 4° C. for 30 minutes. The mixture was washed twice with a staining buffer, and then 0.12 μg/ml PE-streptavidin (BioLegend, Cat #405204) was added at 100 μl/well; the resulting mixture was incubated at 4° C. for 30 minutes. The mixture was washed twice with a staining buffer, and then 150 μl of staining buffer was added to resuspend the cells; signals were detected by a flow cytometer (Thermo Attune NxT). The inhibitory curve of an antibody was drawn with antibody concentration as the abscissa and corresponding MFI value as the ordinate, and fitted with four parameters (GraphPad Prism9) to calculate the IC50 value. The smaller the IC50 value, the stronger the ability of an antibody to inhibit the binding of human TNFα to human TNFR2. The blocking effect of a humanized antibody was normalized to its corresponding human-murine chimeric WT antibody. The higher the percentage value, the better the inhibitory effect of the humanized antibody.
(In general: Flow cytometry measures light scatter and fluorescence of single cells or particles in a stream.)
For the molecule B6, the “% Relative activity (WT antibody/test antibody)” value stood at 98.5%.
On the same count and under the same terms, with B7 the figure was 109%; with B8, 108%.
Consider B9, for which the “% Relative activity (WT antibody/test antibody)” value stood at 102%.
With B10, the “% Relative activity (WT antibody/test antibody)” value was 102%.
